The values below come from publication PMC2812517 (The Journal of Cell Biology, 2010).

The assay deals with GST-LC3B (UniProt Q9GZQ8 1-120). In words: pull-down.

B1: MBP-FYCO1(863–1,478) (domain or fragment)
chain: AQQREEELRALQEELSQAKCSSEEAQLEHAELQEQLHRANTDTAELGIQVCALTVEKERVEEALACAVQELQDAKEAASREREGLERQVAGLQQEKESLQEKLKAAKAAAGSLPGLQAQLAQAEQRAQSLQEAAHQELNTLKFQLSAEIMDYQSRLKNAGEECKSLRGQLEEQGRQLQAAEEAVEKLKATQADMGEKLSCTSNHLAECQAAMLRKDKEGAALREDLERTQKELEKATTKIQEYYNKLCQEVTNRERNDQKMLADLDDLNRTKKYLEERLIELLRDKDALWQKSDALEFQQKLSAEERWLGDTEANHCLDCKREFSWMVRRHHCRICGRIFCYYCCNNYVLSKHGGKKERCCRACFQKLSEGPGSPDSSGSGTSQGEPSPALSPASPGPQATGGQGANTDYRPPDDAVFDIITDEELCQIQESGSSLPETPTETDSLDPNAAEQDTTSTSLTPEDTEDMPVGQDSEICLLKSGELMIKVPLTVDEIASFGEGSRELFVRSSTYSLIPITVAEAGLTISWVFSSDPKSISFSVVFQEAEDTPLDQCKVLIPTTRCNSHKENIQGQLKVRTPGIYMLIFDNTFSRFVSKKVFYHLTVDRPVIYDGSDFL
As for B1, the binding result is “binds”.
